In paper PMC5928155, “Sak4 of Phage HK620 Is a RecA Remote Homolog With Single-Strand Annealing Activity Stimulated by Its Cognate SSB Protein” (Frontiers in Microbiology, 2018):

How the values were obtained:
[1] = target: SSB_(HK620), wild-type HkaK protein from phage HK620 (phage HK620) (UniProt Q9AZ30)
[2] = target: T1, Sak4 (HkaL) of phage HK620 (Enterobacteria phage HK620, UniProt Q9AZ29); assay: gel shift of Cy5-labelled 81-mer ssDNA and single-strand annealing assay, with or without ATP; conditions: 1 mM ATP, 5 mM MgCl2, about 150-169 mM NaCl, pH 7.5, 30 °C; ATP needed for ssDNA binding and annealing; functional evidence, nucleotide binding not measured directly
T1 construct: untagged full-length Sak4 from plasmid pSMG288, expressed in E. coli ER2566; monomer in solution
T1 sequence (Q9AZ29 1-226): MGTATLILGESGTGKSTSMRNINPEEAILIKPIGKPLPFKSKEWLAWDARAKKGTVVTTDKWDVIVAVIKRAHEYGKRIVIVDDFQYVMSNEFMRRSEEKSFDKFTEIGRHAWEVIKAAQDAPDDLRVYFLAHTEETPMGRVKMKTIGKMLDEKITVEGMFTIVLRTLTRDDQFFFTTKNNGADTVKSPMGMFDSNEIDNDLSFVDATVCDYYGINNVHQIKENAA

Sak4 (HkaL) [3] = target: T2, Sak4 (HkaL) (Enterobacteria phage HK620, UniProt Q9AZ29 1-226); assay: EMSA; 1 mM ATP, 5 mM Mg2+; EMSA: 13 mM Tris-HCl pH 7.5, 5 mM MgCl2, 169 mM NaCl, 0.1 mg/mL BSA, 1 mM DTT, +/- 1 mM ATP, 10 nM DNA, 15 min at 30 C; 5% native PAGE in 1X TAE; conditions: protein: recombinant; tags: none stated; label: 5'-Cy5; single strand
T2 sequence: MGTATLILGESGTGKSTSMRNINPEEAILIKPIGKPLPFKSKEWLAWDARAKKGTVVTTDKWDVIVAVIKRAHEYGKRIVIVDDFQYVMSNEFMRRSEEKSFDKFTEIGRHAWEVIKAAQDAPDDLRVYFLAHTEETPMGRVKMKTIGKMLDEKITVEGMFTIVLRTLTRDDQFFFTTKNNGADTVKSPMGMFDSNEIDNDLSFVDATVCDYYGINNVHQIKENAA

SSB Ecoli = SSB Ecoli (Escherichia coli, UniProt P0AGE0 2-178); assay: EMSA; 5 mM Mg2+, 1 mM ATP; EMSA: 13 mM Tris-HCl pH 7.5, 5 mM MgCl2, 169 mM NaCl, 0.1 mg/mL BSA, 1 mM DTT, +/- 1 mM ATP, 10 nM DNA, 15 min at 30 C; 5% native PAGE in 1X TAE; conditions: protein: commercial; chain copies: 4; label: 5'-Cy5; single strand
SSB HK620 (HkaK) = target: T3, SSB HK620 (HkaK) (Enterobacteria phage HK620, UniProt Q9AZ30 1-195); assay: as above; conditions: protein: recombinant; tags: untagged; chain copies: 4; label: 5'-Cy5; single strand
T3 sequence: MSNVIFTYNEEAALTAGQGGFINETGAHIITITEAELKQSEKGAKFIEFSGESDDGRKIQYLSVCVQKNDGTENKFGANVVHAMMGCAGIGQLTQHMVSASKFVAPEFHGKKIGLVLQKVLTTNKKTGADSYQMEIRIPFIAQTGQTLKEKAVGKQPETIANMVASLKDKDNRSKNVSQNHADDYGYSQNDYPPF

[4] = target: T4, Sak4 (HkaL);SSB HK620 (HkaK) (Enterobacteria phage …, UniProt Q9AZ29;Q9AZ30 1-226;1-195, |); assay: EMSA; Sak4 titrated on GO47 precoated with 5.1 uM SSB HK620; 1 mM ATP; value is Sak4 concentration; EMSA: 13 mM Tris-HCl pH 7.5, 5 mM MgCl2, 169 mM NaCl, 0.1 mg/mL BSA, 1 mM DTT, +/- 1 mM ATP, 10 nM DNA, 15 min at 30 C; 5% native PAGE in 1X TAE; conditions: protein: recombinant;recombinant; tags: none stated;untagged; copies: 1;4; label: 5'-Cy5; single strand
T4 sequence 1: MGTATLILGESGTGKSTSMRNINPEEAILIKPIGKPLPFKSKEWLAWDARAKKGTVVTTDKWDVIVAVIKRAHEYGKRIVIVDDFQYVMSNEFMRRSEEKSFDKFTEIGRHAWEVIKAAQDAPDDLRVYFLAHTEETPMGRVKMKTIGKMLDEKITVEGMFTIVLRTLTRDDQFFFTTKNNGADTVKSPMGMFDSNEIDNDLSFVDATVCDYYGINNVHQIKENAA
T4 sequence 2: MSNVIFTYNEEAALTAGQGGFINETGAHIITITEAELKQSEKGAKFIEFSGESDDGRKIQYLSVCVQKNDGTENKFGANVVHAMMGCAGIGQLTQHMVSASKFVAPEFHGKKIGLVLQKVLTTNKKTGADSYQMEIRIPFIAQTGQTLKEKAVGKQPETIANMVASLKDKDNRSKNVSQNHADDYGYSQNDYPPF

Sak4 (HkaL) [5] = target: T2, Sak4 (HkaL); assay: EMSA; 3.7 uM Sak4, 1 mM ATP; EMSA: 13 mM Tris-HCl pH 7.5, 5 mM MgCl2, 169 mM NaCl, 0.1 mg/mL BSA, 1 mM DTT, +/- 1 mM ATP, 10 nM DNA, 15 min at 30 C; 5% native PAGE in 1X TAE; conditions: protein: recombinant; tags: none stated; label: 5'-Cy5 on GO47; blunt
[6] = target: the molecule itself; assay: SEC; Superdex 200 10/300 GL; proteins alone or together in 1 mL of 50 mM Tris-HCl pH 8, 1 mM DTT, 5% glycerol, 150 mM NaCl, 20 min at 30°C before injection; fractions analysed by SDS-PAGE; no ssDNA, no ATP

Sequence of SSB Ecoli (P0AGE0 2-178): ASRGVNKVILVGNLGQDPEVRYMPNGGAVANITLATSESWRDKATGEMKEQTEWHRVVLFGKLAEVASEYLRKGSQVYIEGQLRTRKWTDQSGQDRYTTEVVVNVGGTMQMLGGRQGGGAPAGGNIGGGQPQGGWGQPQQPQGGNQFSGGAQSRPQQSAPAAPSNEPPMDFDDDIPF

Molecule: Sak4 protein of phage HK620 (natural protein)
- single-strand annealing of GO47 and GO34 (10 nM each) by 0.5 µM Sak4 with SSB (HK620) at concentrations above 640 nM, 1 mM ATP (spontaneous annealing 11.8%) [1]: > 65%

Molecule: Nc1ncnc2c1ncn2[C@@H]1O[C@H](COP(=O)(O)OP(=O)(O)OP(=O)(O)O)[C@@H](O)[C@H]1O [ATP]
- gel shift of Cy5-labelled 81-mer ssDNA and single-strand annealing assay, with o [2]: Sak4 shifted the ssDNA only if ATP was added in the reaction buffer

B1: GO47 (ssDNA)
DNA: ACCTGAATCGCCAGCGGCATCAGCACCTTGTCGCCTTACGTATACTATTTGCCCATGGTGAAAACGGGGGCGAAGAAGTTG
- apparent K (half saturation) (Sak4 (HkaL) [3]): ~1850 nM
- apparent K (half saturation) (SSB Ecoli): ~40 nM
- apparent K (half saturation) (SSB HK620 (HkaK)): 226 nM
- apparent K (half saturation) [4]: < 500 nM

B2: GO47/GO34 duplex (dsDNA)
DNA 1: ACCTGAATCGCCAGCGGCATCAGCACCTTGTCGCCTTACGTATACTATTTGCCCATGGTGAAAACGGGGGCGAAGAAGTTG
DNA 2: CAACTTCTTCGCCCCCGTTTTCACCATGGGCAAATAGTATACGTAAGGCGACAAGGTGCTGATGCCGCTGGCGATTCAGGT
- binding result (Sak4 (HkaL) [5]): no binding

B3: SSB_(HK620), wild-type HkaK protein from phage HK620 (natural protein, UniProt Q9AZ30 1-195, looked up)
chain: MSNVIFTYNEEAALTAGQGGFINETGAHIITITEAELKQSEKGAKFIEFSGESDDGRKIQYLSVCVQKNDGTENKFGANVVHAMMGCAGIGQLTQHMVSASKFVAPEFHGKKIGLVLQKVLTTNKKTGADSYQMEIRIPFIAQTGQTLKEKAVGKQPETIANMVASLKDKDNRSKNVSQNHADDYGYSQNDYPPF
notes: HkaK (first annotated Abc1) of phage HK620, a distant SSB homolog (Pfam DUF669); produced untagged; monomer 21.3 kDa; Untagged; also called Abc1_(HK620); HkaK/Abc1_(HK620); source: E. coli ER2566 with pSMG279, purified (PEI, ammonium sulfate, HiTrap Heparin)
- stoichiometry N [6]: 4
